Laboratory results published in patent publication US20100280227A1 (Genentech, published 2010).
Several values for one entry are separate records, joined by “and”; a condition that tells them apart may be missing. Equal values may be shown once. Read-outs that look alike come from different tables or passages of the source. One block for each binder: values may come before it.

Experiments:
[1] = target: T1, human BR3 extracellular domain (human, UniProt Q96RJ3 1-61); experiment: SPR, BR3 ECD on chip;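 note: Anti-BR3 antibodies passed over the chip at high flow in PBS with 0.05% polysorbate 20, on and off rates fitted together globally to a 1:1 binding model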
T1 construct: biotinylated where used as tracer; also called hBR3-ECD; BR3-ECD

[2] = target: T1, human BR3 extracellular domain; experiment: BIAcore, Fab over immobilised target
Description: (§1) Each sample was analysed with 2-minute association and 20-minute dissociation. After each injection the chip was regenerated using 10 mM Glycine pH 1.5. Binding response was corrected by subtracting the RU from a blank flow cell. A 1:1 Languir model of simultaneous fitting of kₒₙ and koff was used for kinetics analysis.

[3] = target: T2, variant human BR3-Fc fusion; experiment: BIAcore, Fab over immobilised target
T2 construct: produced in CHO cells; also called vBR3-Fc; vhBR3-Fc
Description: as §1

[4] = target: T2, variant human BR3-Fc fusion; experiment: SPR, vBR3-Fc on chip;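 note: Anti-BR3 antibodies passed over chip-bound BR3-Fc in PBS with 0.05% polysorbate 20, on and off rates fitted together globally to a 1:1 binding model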
Description: After coupling, unoccupied sites on the chip were blocked by injecting 20 μl of 1M ethanolamine, pH 8.5. The running buffer was PBS containing 0.05% polysorbate 20. […] The binding surface was regenerated by injecting 20-30 μl of 10 mM glycine.HCl (pH 1.5). […] Data were analyzed using a 1:1 binding model using global fitting. The association and dissociation rate constants were fitted simultaneously (BIAevaluation software).
A high flow rate was used in order to minimize mass transport effects.

[5] = target: T3, human BR3 expressed on cells (human, UniProt Q96RJ3 1-184); experiment: BJAB cells, competition with biotin-BAFF
T3 construct: whole, on cells; also called BR3 on BJAB cells; cell surface BR3
Description: (§2) The diluted samples were added to the pelleted BJAB cells in 96 well plates as described above. After 45 min incubation on ice, the cells were washed twice with 200 μl cold assay buffer, and streptavidin-HRP (AMDEX, Amersham Biosciences, Piscataway, N.J.) diluted 1/5,000 in assay buffer was added (100 μl/well). The plates were incubated for a final 45 min on ice. After washing twice with cold assay buffer, color was developed using TMB, the reaction was stopped with H₃PO₄, and the plates were read as described above.

[6] = target: T3, human BR3 expressed on cells; experiment: BJAB cells, direct binding
Description: Direct and competitive binding assays were performed as follows. For the direct binding assay, IgG antibody samples were serially diluted in cold assay buffer to concentrations ranging between 300-0.02 nM. Samples (100 μl) were added to the pelleted cells, and the plates were incubated for 45 min on ice. An additional 100 μl assay buffer was then added to each well, and the plates were centrifuged at 1200 rpm for 5 min at 4° C. After carefully aspirating the supernatant, the cells were washed two additional times with 200 μl assay buffer. An anti-mouse IgG Fc-HRP or goat anti-human IgG Fc-HRP, as appropriate, was diluted 1/10,000 in cold assay buffer was added (100 μl/well, Jackson ImmunoResearch, West Grove, Pa.), and the plates were incubated on ice for 45 min. Following two washes with 200 μl cold assay buffer, tetramethyl benzidine (TMB, Kirkegaard & Perry Laboratories, Gaithersburg, Md.) was added, and color was allowed to develop for 10 min. One hundred microliters 1 M H₃PO₄ was added to stop the reaction. The plates were then read on a microplate reader at 450 nm with a 620 nm reference. In the direct binding assay, the indicated concentrations of mAbs were added to BJAB cells and bound mAb was detected.

[7] = target: T3, human BR3 expressed on cells; experiment: BJAB cells, competition with biotin-BAFF; remark: listed apart in the source
Description: as §2

[8] = target: T1, human BR3 extracellular domain; experiment: SPR, IgG on chip, BR3 ECD in solution
[9] = target: T4, mouse BR3 extracellular domain (mouse, UniProt Q9D8D0 1-64); experiment: SPR, IgG on chip, BR3 ECD in solution
T4 construct: also called mBR3-ECD; mBR-ECD
T4 sequence: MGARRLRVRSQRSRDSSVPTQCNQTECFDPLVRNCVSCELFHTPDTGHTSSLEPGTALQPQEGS

[10] = target: T1, human BR3 extracellular domain; experiment: F(ab)'2 phage solution binding competition ELISA
Description: (§3) Third, a competition ELISA was performed. […] The wells were blocked by adding 65 ul 1% BSA for 30 minutes followed by 40 ul 1% Tween20 for another 30 minutes. The wells were washed with PBS—0.05% Tween20 5 times. […] The wells of the second plate were washed with PBS—0.5% Tween20 at least three times. 75 ul of HRP-conjugated anti-M13 antibody (1/5000 dilution with ELISA buffer) per well was added and incubated at room temperature for 30 minutes. The wells were washed again with PBS—0.05% Tween20 at least five times.

[11] = target: T4, mouse BR3 extracellular domain; experiment: F(ab)'2 phage solution binding competition ELISA
Description: as §3

[12] = target: T1, human BR3 extracellular domain; experiment: SPR BIAcore-3000, Fab
Excerpt: (§4) Surface plasmon resonance assays on a BIAcore™-3000 were used to determine the affinity of the Fabs.

[13] = target: T4, mouse BR3 extracellular domain; experiment: SPR BIAcore-3000, Fab
Excerpt: as §4

[14] = target: T4, mouse BR3 extracellular domain; experiment: SPR BIAcore-2000, mBR3-ECD on chip, Fab injected
Excerpt: (§5) Biacore measurement Surface plasmon resonance assays on a BIAcore™-2000 were used to determine the affinity of anti-BR3 Fabs. […] For kinetics analysis, 1:1 Languir model of simultaneous fitting of kₒₙ and koff was used.

[15] = target: T1, human BR3 extracellular domain; experiment: SPR BIAcore-2000, hBR3-ECD on chip, Fab injected
Excerpt: as §5

mouse BR3-Fc = target: T5, mouse BR3-Fc (mouse); experiment: F(ab)'2 phage solution binding competition ELISA
T5 construct: (BR3 ECD fused to a murine Fc); also called mBR3-Fc; murine BR3-Fc
T5 chain: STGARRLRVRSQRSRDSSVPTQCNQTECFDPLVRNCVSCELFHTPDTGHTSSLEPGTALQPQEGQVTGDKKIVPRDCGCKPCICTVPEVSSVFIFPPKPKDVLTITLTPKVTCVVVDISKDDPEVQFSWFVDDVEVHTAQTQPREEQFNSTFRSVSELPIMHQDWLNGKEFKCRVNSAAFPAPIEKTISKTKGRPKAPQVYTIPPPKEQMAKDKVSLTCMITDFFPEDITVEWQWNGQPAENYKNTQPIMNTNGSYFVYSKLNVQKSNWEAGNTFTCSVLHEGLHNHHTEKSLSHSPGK
Description: as §3

B3: chimeric 2.1 Fab (Fab, V domains shown)
VH: EVQLQESGPSLVKPSQTLSLTCSVTGDSITRGYWNWIRKFPGNKLEFMGYINYSGTTYYNPSLKSRISITRDTSKNQYYLQLNSVTTEDTATYYCATPHTYGAMDYWGQGTTLTVSA
VL: DIVLTQSPVSLAVSLGQRATISCRASESVDDYGISFMHWYQQKPGQPPKLLIYRASDLESGIPARFSGSGSGTDFTLTINPVETDDVAIYYCQQTSKDPWTFGGGT
notes: Fab with murine variable domains; also called Ch 2.1 Fab
Kd [1]: 0.12 nM and 0.11 nM
koff [1]: 0.000271 s⁻¹ and 0.000294 s⁻¹
kon [1]: 2.25e+06 M⁻¹ s⁻¹ and 2.65e+06 M⁻¹ s⁻¹
Kd ([4]; 140 RU BR3-Fc immobilized): 1.12 nM
koff ([4]; 140 RU BR3-Fc immobilized): 0.00148 s⁻¹
kon ([4]; 140 RU BR3-Fc immobilized): 1.32e+06 M⁻¹ s⁻¹
Kd ([4]; 220 RU BR3-Fc immobilized): 0.92 nM
koff ([4]; 220 RU BR3-Fc immobilized): 0.00145 s⁻¹
kon ([4]; 220 RU BR3-Fc immobilized): 1.58e+06 M⁻¹ s⁻¹
Kd [2]: 0.115 nM

B4: chimeric 2.1 IgG (antibody, V domains shown)
VH: EVQLQESGPSLVKPSQTLSLTCSVTGDSITRGYWNWIRKFPGNKLEFMGYINYSGTTYYNPSLKSRISITRDTSKNQYYLQLNSVTTEDTATYYCATPHTYGAMDYWGQGTTLTVSA
VL: DIVLTQSPVSLAVSLGQRATISCRASESVDDYGISFMHWYQQKPGQPPKLLIYRASDLESGIPARFSGSGSGTDFTLTINPVETDDVAIYYCQQTSKDPWTFGGGT
notes: also called Ch 2.1 IgG; ch 2.1
Kd [1]: 0.04 nM
koff [1]: 6.8e-05 s⁻¹
kon [1]: 1.68e+06 M⁻¹ s⁻¹
Kd [4]: 0.04 nM
koff [4]: 3.8e-05 s⁻¹
kon [4]: 980000 M⁻¹ s⁻¹
EC50 [6]: 0.14 nM
IC50 [5]: 0.23 nM
IC50 [7]: 0.2 nM

B5: Hu9.1-73 Fab (Fab, V domains shown)
VH: EVQLVESGGGLVQPGGSLRLSCAASGLPMAGFYTSWVRQAPGKGLEWVGFIRDKANGYTTEYNPSVKGRFTISADTSKNTAYLQMNSLRAEDTAVYYCAQVRRALDYWGQGTLVTVSS
VL: DIQMTQSPSSLSASVGDRVTITCKSSQSLLYSSNQNNYLAWYQQKPGKAPKLLIYWAQHLDSGVPSRFSGSGSGTDFTLTISSLQPEDFATYYCQQYYTYPYTFGQGTKVEIKR
notes: Fab expressed in E. coli
Kd [1]: 0.31 nM and 0.32 nM
koff [1]: 0.000174 s⁻¹ and 0.000175 s⁻¹
kon [1]: 560000 M⁻¹ s⁻¹ and 550000 M⁻¹ s⁻¹
Kd [4]: 0.43 nM and 0.48 nM
koff [4]: 0.000215 s⁻¹ and 0.000225 s⁻¹
kon [4]: 500000 M⁻¹ s⁻¹ and 470000 M⁻¹ s⁻¹
Kd [3]: 0.45 nM

B6: Hu9.1-88 Fab (Fab, V domains shown)
VH: EVQLVESGGGLVQPGGSLRLSCAASGFPVTGSYVSWVRQAPGKGLEWVGFIRDKANGYTTEYNPSVKGRFTISRDTSKNTLYLQMNSLRAEDTAVYYCAQVRRALDYWGQGTLVTVSS
VL: DIQMTQSPSSLSASVGDRVTITCKSSQSLLYSSNQNNYLAWYQQKPGKAPKLLIYWASTRESGVPSRFSGSGSGTDFTLTISSLQPEDFATYYCQQYYTYPYTFGQGTKVEIKR
notes: Fab
Kd [1]: 0.736 nM
koff [1]: 0.00101 s⁻¹
kon [1]: 1.37e+06 M⁻¹ s⁻¹
Kd [4]: 1.37 nM
koff [4]: 0.000742 s⁻¹
kon [4]: 541000 M⁻¹ s⁻¹
Kd [2]: 6.3 nM
Kd [3]: 11 nM

B8: V3-1h (antibody, human IgG1, V domains shown)
VH: EVQLVESGGGLVQPGGSLRLSCAASGFTISSNSIHWVRQAPGKGLEWVAWITPSDGNTDYADSVKGRFTISADTSKNTAYLQMNSLRAEDTAVYYCARRVCYNRLGVCAGGMDYWGQGTLVTVSS
VL: DIQMTQSPSSLSASVGDRVTITCRASQDVSTAVAWYQQKPGKAPKLLIYSASFLYSGVPSRFSGSGSGTDFTLTISSLQPEDFATYYCQQSRITPPTFGQGTKVEIKR
IC50 [5]: 5.97 nM

B9: 51 (Fab, V domains shown)
VH: EVQLVESGGGLVQPGGSLRLSCAASGFTISSTGIHWVRQAPGKGLEWVGGISPSSGSTNYADSVKGRFTISADTSKNTAYLQMNSLRAEDTAVYYCARRKVVSSHVTNKYVMDYWGQGTLVTVSS
VL: DIQMTQSPSSLSASVGDRVTITCRASQDVSTAVAWYQQKPGKAPKLLIYSASFLYSGVPSRFSGSGSGTDFTLTISSLQPEDFATYYCQQSYTTPPTFGQGTKVEIKR
notes: also called V51; clone 51
binding result [10]: binds
binding result [11]: no binding

B11: 44 (Fab, V domains shown)
VH: EVQLVESGGGLVQPGGSLRLSCAASGFTITGSYIHWVRQAPGKGLEWVAWIYPDGGYTDYADSVKGRFTISADTSKNTAYLQMNSLRAEDTAVYYCASKPAGPFGYWGQGTLVTVSS
VL: DIQMTQSPSSLSASVGDRVTITCRASQDVSTAVAWYQQKPGKAPKLLIYSASFLYSGVPSRFSGSGSGTDFTLTISSLQPEDFATYYCQQSYTTPPTFGQGTKVEIKR
notes: also called V44; clone 44
binding result [10]: no binding
IC50 [11]: 1500 nM

B13: mV3-46s IgG (antibody, V domains shown)
VH: EVQLVESGGGLVQPGGSLRLSCAASGFTISSSSIHWVRQAPGKGLEWVAWVLPSVGFTDYADSVKGRFTISADTSKNTAYLQMNSLRAEDTAVYYCARRVCYNRLGVCAGGMDYWGQGTLVTVSS
VL: DIQMTQSPSSLSASVGDRVTITCRASQDVSTAVAWYQQKPGKAPKLLIYSASFLYSGVPSRFSGSGSGTDFTLTISSLQPEDFATYYCQQSQISPPTFGQGTKVEIKR
notes: IgG on chip
Kd [8]: 0.02 nM
koff [8]: 3.18e-05 s⁻¹
kon [8]: 1.57e+06 M⁻¹ s⁻¹
Kd [9]: 0.32 nM
koff [9]: 9.51e-05 s⁻¹
kon [9]: 298000 M⁻¹ s⁻¹

Continued, values first:

Kd [1]: 19.5 nM and 23.5 nM
koff [1]: 0.0233 s⁻¹ and 0.0263 s⁻¹
kon [1]: 1.2e+06 M⁻¹ s⁻¹ and 1.12e+06 M⁻¹ s⁻¹
Kd [2]: 21.5 nM
Kd [3]: > 100 nM
B1: chimeric 11G9 Fab (Fab, V domains shown)
VH: DVQLQESGPSLVKPSQTLSLTCSVTGDSITSGYWNWIRKFPGNKLEYMGYISYSGSTYYNPSLKSRISITRDTSKNQFYLQLLSVTTEDTATYYCAGLDGLYWYFDVWGAGTLVTVSS
VL: DIVMTQTPLSLPVSLGDQASISCRSSQSLVHSNGNTYLHWYLQKPGQSPKLLIYKVSNRFSGVPDRFSGSGSGTDFTLKISRVEAEDLGVYFCSQSTHVPPFTFGSGT
notes: Fab with murine variable domains; also called Ch 11G9 Fab

Kd [1]: 0.34 nM
koff [1]: 0.000549 s⁻¹
kon [1]: 1.64e+06 M⁻¹ s⁻¹
Kd [4]: 2.78 nM
koff [4]: 0.00218 s⁻¹
kon [4]: 780000 M⁻¹ s⁻¹
IC50 [5]: 0.45 nM
B2: chimeric 11G9 IgG (antibody, V domains shown)
VH: DVQLQESGPSLVKPSQTLSLTCSVTGDSITSGYWNWIRKFPGNKLEYMGYISYSGSTYYNPSLKSRISITRDTSKNQFYLQLLSVTTEDTATYYCAGLDGLYWYFDVWGAGTLVTVSS
VL: DIVMTQTPLSLPVSLGDQASISCRSSQSLVHSNGNTYLHWYLQKPGQSPKLLIYKVSNRFSGVPDRFSGSGSGTDFTLKISRVEAEDLGVYFCSQSTHVPPFTFGSGT
notes: also called Ch 11G9 IgG

Kd [8]: 0.24 nM
koff [8]: 7.31e-05 s⁻¹
kon [8]: 300000 M⁻¹ s⁻¹
Kd [9]: 1.17 nM
koff [9]: 0.00014 s⁻¹
kon [9]: 119000 M⁻¹ s⁻¹
B7: mV3-46 IgG (antibody, V domains shown)
VH: EVQLVESGGGLVQPGGSLRLSCAASGFTISNSSIHWVRQAPGKGLEWVAWVLPSVGFTDYADSVKGRFTISADTSKNTAYLQMNSLRAEDTAVYYCARRVCYNRLGVCAGGMDYWGQGTLVTVSS
VL: DIQMTQSPSSLSASVGDRVTITCRASQDVSTAVAWYQQKPGKAPKLLIYSASFLYSGVPSRFSGSGSGTDFTLTISSLQPEDFATYYCQQSQISPPTFGQGTKVEIKR
notes: IgG on chip

Kd [12]: 0.6 nM
koff [12]: 8.6e-05 s⁻¹
kon [12]: 140000 M⁻¹ s⁻¹
Kd [13]: 1 nM
koff [13]: 0.00027 s⁻¹
kon [13]: 270000 M⁻¹ s⁻¹
Kd [14]: 1 nM
koff [14]: 0.00027 s⁻¹
kon [14]: 270000 M⁻¹ s⁻¹
Kd [15]: 0.6 nM
koff [15]: 8.6e-05 s⁻¹
kon [15]: 140000 M⁻¹ s⁻¹
B10: V3-46s Fab (Fab, V domains shown)
VH: EVQLVESGGGLVQPGGSLRLSCAASGFTISSSSIHWVRQAPGKGLEWVAWVLPSVGFTDYADSVKGRFTISADTSKNTAYLQMNSLRAEDTAVYYCARRVCYNRLGVCAGGMDYWGQGTLVTVSS
VL: DIQMTQSPSSLSASVGDRVTITCRASQDVSTAVAWYQQKPGKAPKLLIYSASFLYSGVPSRFSGSGSGTDFTLTISSLQPEDFATYYCQQSQISPPTFGQGTKVEIKR
notes: N31S mutant of V3-46; also called V46s; N31S

binding result [10]: binds
binding result (mouse BR3-Fc): binds
B12: 46 (Fab, V domains shown)
VH: EVQLVESGGGLVQPGGSLRLSCAASGFTITGSYIHWVRQAPGKGLEWVAWIYPDGGYTDYADSVKGRFTISADTSKNTAYLQMNSLRAEDTAVYYCASKPAGFGYWGQGTLVTVSS
VL: DIQMTQSPSSLSASVGDRVTITCRASQDVSTAVAWYQQKPGKAPKLLIYSASFLYSGVPSRFSGSGSGTDFTLTISSLQPEDFATYYCQQSYTTPPTFGQGTKVEIKR
notes: also called V46; clone 46 of the naive library (not V3-46)
